In patent publication US20220412989A1, “COMPOSITIONS AND METHODS FOR DETECTING CELLS UNDERGOING FERROPTOSIS USING AN ANTIBODY” (THE TRUSTEES OF COLUMBIA UNIVERSITY IN THE CITY OF NEW YORK, priority 2020, published 2022):

Assays:
[1] = tested on: HT-1080 cells; assay: Immunofluorescence staining of cells treated with cell death inducers, membrane intensity; type: cell-based, human
Protocol: HT-1080 (ATCC Cat #CRL-7951, RRID:CVCL_0317), A-673, SK-BR-3, SK-LMS-1 and Huh-7 cells were treated with 1 μM RSL3 for 4 h, 15 μM erastin for 8 h, 10 μM IKE for 8 h, 15 μM FINO2 for 8 h, 10 μM FIN56 for 8 h, 100 μM tBuOOH for 8 h, 1 μM staurosporine (STS) for 6 h, 2 μM camptothecin (CPT) for 24 h, 1 μM RSL3+5 μM Fer-1 for 4 h and 10 μM IKE+5 μM Fer-1 for 8 h on poly-lysine-coated cover slips (Sigma Aldrich P4832) in 24-well plate. Media were taken out and the cells were gently washed with PBS^++ (PBS with 1 mM CaCl2) and 0.5 mM MgCl2) twice. The cells were fixed and permeabilized by adding 200 μL/well of 4% paraformaldehyde (PFA) in PBS with 0.1% Triton X-100 (PBT), and incubated at room temperature for 18 min. The cells were then washed with PBT three times. Then the cells were blocked with 5% goat serum (ThermoFisher 50197Z) in PBT for 1 h at room temperature. The cells were incubated with purified mouse monoclonal antibodies (1:5 dilution), mouse mAb 3F3 FMA (1:500 dilution), Transferrin Receptor/CD71 Monoclonal Antibody, Clone: H68.4, Invitrogen (Thermo Fisher Scientific Cat #13-6800, RRID:AB_2533029, 1:250 dilution), Cd71 (D7G9X) XP® Rabbit mAb (Cell Signaling Technology Cat #13113, RRID:AB_2715594, 1:100 dilution), CD71 (3B8 2A1) (Santa Cruz Biotechnology Cat #sc-32272, RRID:AB_627167, 1:50 dilution), Tom20 (FL-145) (Santa Cruz Biotechnology Cat #sc-11415, RRID:AB_2207533, 1:250 dilution), PDI antibody [RL90]—ER Marker (Abcam Cat #ab2792, RRID:AB_303304, 1:100 dilution), Gm130 (D6B1) XP® Rabbit mAb (Cell Signaling Technology Cat #12480, RRID:AB_2797933, 1:3200 dilution), Anti-Malondialdehyde antibody (Abcam Cat #ab6463, RRID:AB_305484, 1:400 dilution), Anti-4 Hydroxynonenal antibody (Abcam Cat #ab46544, RRID:AB_722493, 1:50 dilution), ACSL4 Antibody (F-4) (Santa Cruz Biotechnology Cat #sc-365230, RRID:AB_10843105, 1:50 dilution), mouse mAb 1F83 (1:100 dilution), which specifically recognizes the malondialdehyde (MDA)-lysine adduct 4-methyl-1,4-dihydropyridine-3,5-dicarbaldehyde (MDHDC) (Yamada et al., 2001), in PBT with 1% BSA and 5% goat serum overnight at 4° C. The cells were washed with PBT for 5 min three times. The cells were incubated with Goat anti-Mouse IgG (H+L) Highly Cross-Adsorbed Secondary Antibody, Alexa Fluor 594 (Thermo Fisher Scientific Cat #A-11032, RRID:AB_2534091, 1:200 dilution) or Goat anti-Rabbit IgG (H+L) Highly Cross-Adsorbed Secondary Antibody, Alexa Fluor 488 (Thermo Fisher Scientific Cat #A-11034, RRID:AB_2576217, 1:200 dilution) at room temperature for 1 h. The cells were washed with PBT for 5 min three times. ProLong Diamond antifade mountant with DAPI (ThermoFisher P36962) was added to stain the nucleus. All images were captured on a Zeiss LSM 800 confocal microscope at Plan-Apochromat 63x/1.40 Oil DIC objective with constant laser intensity for all samples. When applicable, line-scan analysis was performed on representative confocal microscopy images using Zeiss LSM software to qualitatively visualize fluorescence overlap.
The quantification of the intensity of antibodies was analyzed using CellProfiler 3.1.8 (Carpenter et al., 2006) (CellProfiler Image Analysis Software, RRID:SCR_007358). Nuclei were firstly identified as primary objects using global minimum cross entropy strategy. […] Then mean intensities and size areas of nuclei, cytoplasm and plasma membranes were then measured and reported. […]

[2] = tested on: TfR1 protein in HT-1080 cells; assay: Western blot of TfR1 during ferroptosis; type: cell-based, human; conditions: RSL3-induced and IKE-induced ferroptosis
Protocol: HT-1080 cells were seeded in DMEM (Corning 10-013-CM) and 10% Hi-FBS with 1% penicillin and streptomycin (PS) with 1% MEM Non-Essential Amino Acids Solution (100×) (Thermo Fisher Scientific 11140-076) 16 h prior to use. DMSO or 1 μM of RSL3 was added and incubated for 4 h. Following treatment, the medium was aspirated from each dish and cells were washed twice with PBS. Cells were lysed with 70 μl lysis buffer (RIPA buffer from ThermoFisher, cat. 89900, 1 mM EDTA, 1 mM PMSF, 1× Halt™ protease inhibitor cocktail from ThermoFisher, cat. 78430 and 1× Halt™ phosphatase inhibitor cocktail from ThermoFisher, cat. 78426). Unlysed cells and debris were pelleted for 15 min at 16,000×g at 4° C. Samples were separated using SDS-PAGE and transferred to a polyvinylidene difluoride membrane. Transfer was performed using the iBlot2 system (Invitrogen). […]

B1: 3F3-FMA: murine monoclonal IgG1 raised against ferroptotic membrane fractions; antigen is human transferrin receptor protein 1 (TfR1) (antibody, V domains shown)
VH: EVLLQQSGTELVRPGALVKLSCKASGFNIQDLYIHWVKQRPEQGLEWIGWIDPETDNTIYDPKFQGKASITADTSSNTAYLQLSSLTSEDTAMYYCSTGLLQWYFDVWGAGTAVTVSS
VL: DIVMTQSPSSLAMSIGQKVTMRCKSSQSLLNSYNQKNCLAWYQQKPGQSPKLLLYFVSTRESGVPDRFIGSGSGTDFTLTISSVQAEDLADYFCQQHYSTPLTFGAGTKLELK
staining / membrane intensity in RSL3-induced ferroptosis ([1]; 1 μM RSL3, 4 h vs DMSO): stained cell boundaries and the inside puncta became brighter
cell surface / membrane staining in STS-induced apoptosis ([1]; 1 μM staurosporine, 6 h): wasn't detected
cell surface / membrane intensity in camptothecin-induced apoptosis ([1]; 2 μM camptothecin, 24 h): no significant increase
membrane intensities in H2O2-treated cells ([1]; 1 mM H2O2, 4 h): didn't observe increased membrane intensities
staining pattern with other ferroptosis inducers ([1]; IKE, erastin, FIN56, FINO2 and tBuOOH, 8 h): the same changes of 3F3-FMA pattern were observed
intensity of the bands in western blotting [2]: increased intensity of the bands
